Source: publication PMC7939381, “MMP activation–associated aminopeptidase N reveals a bivalent 14-3-3 binding motif” (The Journal of Biological Chemistry, 2021)
One block for each substance: values may come before it.

Legend:
14-3-3σ (stratifin, SFN) = 14-3-3σ (stratifin, SFN) (UniProt P31947); test: direct fluorescence polarisation titration; details: reference: peptide 7 (pS43 only)
14-3-3η = 14-3-3η (UniProt Q04917); test: direct fluorescence polarisation titration; details: reference: peptide 7 (pS43 only)
14-3-3β/α = 14-3-3β/α (UniProt P31946); test: direct fluorescence polarisation titration; details: reference: peptide 7 (pS43 only)
[1] = target: peptide 11, APN 36–73 pSer43 pThr63, as used in ITC and co-crystallisation (human) (UniProt P15144); test: ITC; 14-3-3η (500 µM; 250 µM for peptide 11) titrated into peptide (50 µM; 12.5 µM for peptide 11), 18 injections; 50 mM HEPES pH 7.4, 250 mM NaCl, 20 mM MgCl2; 25 °C
Chain of peptide 11, APN 36–73 pSer43 pThr63, as used in ITC and co-crystallisation (human) (P15144 36-73): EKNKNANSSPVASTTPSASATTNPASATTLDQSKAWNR

[2] = target: peptide 7, APN 36–73 pSer43, as used in ITC (human) (UniProt P15144); test: as above
Chain of peptide 7, APN 36–73 pSer43, as used in ITC (human) (P15144 36-73): as above

[3] = target: fluorescently labeled peptide 11, APN 36–73 pSer43 pThr63 (human) (UniProt P15144); test: fluorescence polarisation; direct binding: dilution series of 14-3-3 protein added to FITC-labeled peptide (30 nM stock, 5 µl in 15 µl); 10 mM HEPES pH 7.4, 150 mM NaCl, 2 mM DTT, 0.01% Tween 20; 60 min at room temperature, read at 25 °C; four-parameter fit
Chain of fluorescently labeled peptide 11, APN 36–73 pSer43 pThr63 (human) (P15144 36-73): as above

[4] = target: fluorescently labeled peptide 7, APN 36–73 pSer43 (human) (UniProt P15144); test: as above
Chain of fluorescently labeled peptide 7, APN 36–73 pSer43 (human) (P15144 36-73): as above

binding against the reference (14-3-3σ (stratifin, SFN); sites S61): stronger | binding against the reference (14-3-3η; sites S61): stronger | binding against the reference (14-3-3β/α; sites S61): stronger
Substance: Aminopeptidase N (APN, CD13) 36-73 (from UniProt P15144) peptide 10 (pS43 pS61)

Kd [1]: 0.14 µM | stoichiometry N [1]: 0.58 | Kd [2]: 40.7 µM | stoichiometry N [2]: 1.13 | Kd [3]: 0.046 µM | Kd [4]: 24 µM
Substance: 14-3-3η, full length, N-terminally His6-tagged (from UniProt Q04917 1-246) (natural protein)

binding against the reference (14-3-3σ (stratifin, SFN); sites T63): stronger | binding against the reference (14-3-3β/α; sites T63): stronger
Substance: Aminopeptidase N (APN, CD13) 36-73 (from UniProt P15144) peptide 11 (pS43 pT63)

binding against the reference (14-3-3σ (stratifin, SFN); sites T64): stronger | binding against the reference (14-3-3η; sites T64): stronger | binding against the reference (14-3-3β/α; sites T64): stronger
Substance: Aminopeptidase N (APN, CD13) 36-73 (from UniProt P15144) peptide 12 (pS43 pT64)
